Measurements from publication PMC10872345.

How the values were obtained:
[1] = molecular target: Biotinylated human E-cadherin K14E mutant ectodomains (human); test: single-molecule AFM force spectroscopy
[2] = molecular target: Biotinylated human E-cadherin ectodomains (EC1-5), wild type (human); test: single-molecule AFM force spectroscopy

Row | average unbinding force [1] [pN] | unbinding force, lower peak (un-strengthened, with 40 nM 66E8 Fab) [1] [pN] | unbinding force, second peak (strengthened, with 40 nM 66E8 Fab) [1] [pN] | peak unbinding force [2] [pN] | unbinding force, lower peak (un-strengthened, with 40 nM 66E8) [2] [pN] | unbinding force, second peak (strengthened, with 40 nM 66E8) [2] [pN] | Substance
1 | 42.8 | 39.4 | 62.3 |  |  |  | Biotinylated human E-cadherin K14E mutant ectodomains (domain or fragment)
2 |  |  |  | 48.3 | 45.2 | 63.3 | Biotinylated human E-cadherin ectodomains (EC1-5), wild type (domain or fragment)
